Patent publication US20250154213A1, “De Novo Designed Cortisol Biosensor” (University of Washington, priority 2023, published 2025)

Columns and labels:
[1] = tested on: seq129.1_CID-SmBiT and mini11-LgBiT; experiment: Cortisol sensing with NanoBiT fusions (luminescence on cortisol titration); assay type: biochemical; conditions: seq129.1_CID-SmBiT and mini11-LgBiT mixed equimolar, cortisol 2-3 hours, DTZ 25 μM; estimated; read-out: EC50 of luminescent signal on cortisol titration
Text: FIG. 2. Design and characterization of a cortisol-dependent heterodimer. (A) Design pipeline for cortisol-induced heterodimerization. Starting from a model of seq129.1_CID in complex with cortisol (top), we used RIFdock™ and a library of designed 3-helix bundles to generate thousands of putative ternary complexes (middle), and amino acid sequences encoding these complexes were generated with FastDesign™ and ProteinMPNN™ (bottom). Zoom-in of the designed CID ternary complex (seq129.1_CID, mini11, and cortisol) (bottom panel). (B) Size-exclusion chromatography traces of an equimolar solution of seq129.1 and mini11 (1 μM) in the presence or absence of cortisol (10 μM). (C) Schematic diagram of the designed cortisol-induced heterodimerization coupled with a binary split luciferase to create a biosensor. […]
As a proof-of-concept for the application of the designed CID as a sensor for cortisol, we genetically fused seq129.1_CID and mini11 to the SmBiT and LgBiT components of the NanoBiT™ system, respectively, which reconstitutes NanoBiT™ and generates luminescence when brought in close proximity by a molecular interaction 18.
seq129.1_CID and mini11 were genetically fused to SmBiT and LgBiT, respectively, and ordered as eblocks from IDT. […] Immediately after adding DTZ, the luminescent signal was measured on a Neo2 plate reader. […]

seq129.1_CID-SmBiT = biological target: T1, seq129.1_CID-SmBiT; experiment: cell-based or functional assay
T1 chain: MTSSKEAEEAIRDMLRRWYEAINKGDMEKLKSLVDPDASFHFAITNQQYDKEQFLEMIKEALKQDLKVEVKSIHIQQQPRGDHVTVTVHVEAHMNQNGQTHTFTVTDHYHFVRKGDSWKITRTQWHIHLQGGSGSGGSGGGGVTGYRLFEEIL

seq129.1_CID = experiment: Native mass spectrometry of the ternary complex; assay type: binding; conditions: cortisol and mini11

C[C@]12CCC(=O)C=C1CC[C@@H]1[C@@H]2[C@@H](O)C[C@@]2(C)[C@H]1CC[C@]2(O)C(=O)CO [cortisol]
EC50 [1]: 25 nM

B1: mini11-LgBiT (designed binder)
chain: MSSASTLVKTFSLCMEALSIEDPEKREEVYEKARKLAEENNDPAALFLVESIKKQHEQSGGSGGMVFTLEDFVGDWEQTAAYNLDQVLEQGGVSSLLQNLAVSVTPIQRIVRSGENALKIDIHVIIPYEGLSADQMAQIEEVFKVVYPVDDHHFKVILPYGTLVIDGVTPNMLNYFGRPYEGIAVFDGKKITVTGTLWNGNKIIDERLITPDGSMLFRVTINS
luminescent signal of reconstituted NanoBiT on titration with cortisol (the EC50 is a cortisol concentration) (seq129.1_CID-SmBiT): 25 nM

B2: mini11: designed 3-helix bundle minibinder that binds seq129.1_CID only with cortisol (protein)
chain: MSSASTLVKTFSLCMEALSIEDPEKREEVYEKARKLAEENNDPAALFLVESIKKQHEQSSSLE
ternary complex by native mass spectrometry (seq129.1_CID): revealed a molecular weight for the seq129.1_CID-cortisol-mini11 ternary complex
